Data as given in the supplement of paper PMC12764529.
± gives the half width of the 95% confidence interval.

experiment: folding stability dG unfold (combined trypsin and chymotrypsin); higher = more stable
How it was run: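 Only designs with AlphaFold2 dimer inter-PAE above 15 were retained; each was a mini-protein under 80 residues with no cysteine, in a PA-tagged cDNA display construct. After digestion with trypsin and chymotrypsin and sequencing, K50 was inferred by Bayesian fitting of counts, and unfolding free energy was derived per protease or combined against a sequence-predicted unfolded-state K50 and a shared folded-state K50.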

Compared with “SAGGSAGGSAMPEEVKLRVVKVKVKEVEVETDENGEKRTRVKAEVVEEREITLPKEELEKLSAGGSAGGSAG [r3_121_TrROS_Hall]”, “SAEKKTVRVVLEITLPPGLKPGDTITVKIEVDGKVYEAKILRVEEVPPGQTVRIVLELPAEDVKITIEPSAG [r14_554_TrROS_Hall]” is higher in “folding stability dG unfold” value: 1.76 ± 0.14 kcal/mol for the first, 3.81 ± 0.071 kcal/mol for the second.

Compared with “KTITIIIPMTPEQIEELAKALAEKLGLSEEEVEVVKVEKIKNEDGELYVKITIKLKETGKEITIIVPLKDLS [r1_21_TrROS_Hall]”, “SAGGSAGGSAKKTLYKVKITKKNKNGEKIEIVVPKSEDEIKEEAKKKFGIDKIEIEPVELKSAGGSAGGSAG [r3_220_TrROS_Hall]” is lower in “folding stability dG unfold” value: 2.8 ± 0.12 kcal/mol for the first, 0.182 ± 0.17 kcal/mol for the second.

Compared with “SAGGSAGGSMPVKVITTISRETVPLPNGDPGARYTVTTTVTTDSTVVSTTTTTFSSEAELAAASAGGSAGGS [r12_461_JUSTAS]”, “SAGGGSISISLPAEELKALSPEDVIEVTAPDGTKIKAKPVKKGDTYPVTAEDPNNPKNATEMGTATLPSAGG [r13_745_JUSTAS]” is lower in “folding stability dG unfold” value: 0.894 ± 0.084 kcal/mol for the first, 0.176 ± 0.19 kcal/mol for the second.

Compared with “SAGGSAGGSAGKMYRITVTNENGEKLEIEVPEEVKTEEELKEELKKKIPNVVEVKIEEVPSAGGSAGGSAGG [r11_311_TrROS_Hall]”, “SAGGSAKVTIDTDNGIIKIEVGGKLIAEIEIPPGFPGGIYLEYEPNPPTLKFYIYTKNGPVYINDISAGGSA [r2_399_TrMRF]” is higher in “folding stability dG unfold” value: 0.377 ± 0.25 kcal/mol for the first, 3.69 ± 0.32 kcal/mol for the second.

Going from “SAGGEGEILDKKEFTFPDNVKLEVYVFKVGDKYFVKVKTTITVPENPTKPKKPLKKITPEDIKKALEKSAGG [r13_760_TrMRF]” to “SAGGSAGGKGGKPKIKLEPINTNPNGWQTFRFEVTPEAIDDLMDDFPNVQVERHPGEMYITVRNSAGGSAGG [r6_395_TrROS]”, the “folding stability dG unfold” value falls from 1.5 ± 0.5 kcal/mol to -0.104 ± 0.23 kcal/mol.

Going from “SAGGSAGGSAGGKWRPITFPFPDGWYLQIYMNPDGDVKAEIYNPDGKPVEKTFPPGEPIFSAGGSAGGSAGG [r7_215_TrROS]” to “SAGGSAGGSARITVTPEGGYWRVTIKGPGKTRTFQFPMPANEAEEIVEELQNPPIDIDVEPVSAGGSAGGSA [r18_103_TrROS]”, the “folding stability dG unfold” value falls from 1.55 ± 0.054 kcal/mol to -0.115 ± 0.14 kcal/mol.

First: SMKKVLIVTPNPEINPEEVVKALKEKGFKEIKVFSTPEELKEALPEYDIVIIEENGKLYIKYIPPGKLAKSA [r9_750_TrMRF]
Second: SAGGSAGGGMNATPKKIKVTITITDPSGNKTTVTREFDSEEEAEKFVKELLPPNRSYTVTYEPESAGGSAGG [r6_290_JUSTAS]
The “folding stability dG unfold” value of the first is lower: 1.35 ± 0.27 kcal/mol for the first, 2.56 ± 0.068 kcal/mol for the second.

First: SAGGMKVIEVEMTADEVKALVKELAEKDDLKIYIYVDGKKIELTVDEIKKIPPENQKVTIIIEKKKESAGGS [r16_628_TrROS_Hall]
Second: SAGGSAEPRPVVVVFEGTEEEVEELVQKVRDEGFAIDFKVEPLPDPRYYRATVIVRDPDGSWTAKLSAGGSA [r15_177_TrMRF]
The “folding stability dG unfold” value of the first is higher: 3.07 ± 0.28 kcal/mol for the first, 2.12 ± 0.04 kcal/mol for the second.

Compared with “SAGGSAGGSANIDIKVEENPGNGYRKVEVTMTVDDLRELFGNEPIPPGEERQIKMTIYLPIPSAGGSAGGSA [r18_327_TrROS]”, “SAGGSAGGPEVKILKVDPENNTITLALPVDNEILLLEIKIEPDPENPNSFKATIELKVFPYNEASAGGSAGG [r6_371_TrMRF]” is higher in “folding stability dG unfold” value: 1.21 ± 0.17 kcal/mol for the first, 2.8 ± 0.26 kcal/mol for the second.

Going from “SPSTTIPQTITLDTKLPNGKPATPEEVKAIAEEIVKKLEKEKGVKISINVKVTPVDSSGKYKLDITITIIKS [r1_231_JUSTAS]” to “SAGGMKIVSIEYDKENKKITIKVEAPPGVSAEELAKKIKELAKELFGKEIEIEVKVEKVEFFEPEEESAGGS [r8_314_TrROS_Hall]”, the “folding stability dG unfold” value rises from 2.59 ± 0.11 kcal/mol to 3.33 ± 0.12 kcal/mol.

Going from “SAGGSAGGSAAKPIPFTITSVSVPTAPDGKKYAVVEISFPGSGAKAWAVYDIDDPYIKEAGSAGGSAGGSAG [r3_57_TrMRF]” to “SAGGKLLEELNVEKVEVVEVKEFSLPPLPLLVLLPTVTVTFKDGSKVKFKVLFLYDPSNPKPIVVAGSAGGS [r8_422_TrMRF]”, the “folding stability dG unfold” value rises from 1.37 ± 0.1 kcal/mol to 3.07 ± 0.16 kcal/mol.

“SAGDVKVITIKNPDGWQASIALNEDGTVYLMFNSPDQFLDLIEDLGFPITSVEMHPNGMMIFTIELPPSAGG [r19_257_TrROS]” and “SAGMELELELEFRLEDGLEVRIRVKVRFDPETGELVIEEVRIEVRPLPPPPPLVLTDEELEALGLEPEESAG [r5_393_TrROS_Hall]” are within error of each other in “folding stability dG unfold” value: 3.41 ± 0.18 kcal/mol for the first, 3.6 ± 0.16 kcal/mol for the second.

Compared with “SAGGSAGGWQPIAEHEFENPEDGKKIKIYYWPENGMMRIEFPNGRKHVIPPGDPFKSIEEMIKASAGGSAGG [r6_72_TrROS]”, “SAGGSAGGKKIEMKIIKNEDGTKLIVFKSKEEAEEALKKAGYEVKIVSVNEEKGYVVIEIRKKKSAGGSAGG [r6_510_TrROS_Hall]” is higher in “folding stability dG unfold” value: 1.54 ± 0.14 kcal/mol for the first, 1.9 ± 0.072 kcal/mol for the second.

Compared with “SAGGSAGGSAGMKELEITIIDKKTGKPLKVKVTLVEVDGKLYLVIEVYKNGKPLETYVLPSAGGSAGGSAGG [r11_631_TrROS_Hall]”, “SAGGSAPARIVLPGGRTRTLRLSEISPELLAAFPDVLVRLPGGEVRRLPADTLLSLEGDYTLVVPGSAGGSA [r15_733_TrMRF]” is lower in “folding stability dG unfold” value: 3 ± 0.18 kcal/mol for the first, 0.335 ± 0.099 kcal/mol for the second.

Compared with “SAGGKEKKPKVELKITSISEFEGGLVIEGEATTPTKKIKVLAVYDPSTGKITVWRETPEGIEPLAEFGSAGG [r13_445_TrMRF]”, “SAGGMEKIEIEVENEDGEKVKIEIYFDEETGFIVVKIEGENPELIDALKKKLGLEIVEKREDGYLVFKSAGG [r13_937_TrROS_Hall]” is higher in “folding stability dG unfold” value: 2.18 ± 0.049 kcal/mol for the first, 3.48 ± 0.23 kcal/mol for the second.

Compared with “SGLPEELARKLGLSAMTPLPDGTLVMALPDGTRVVVRIETTEVRLSPLGEPAVEVEVEVERLPAPAPEAASA [r9_648_JUSTAS]”, “SAGGSAVRIKVWPPNGKEQWIPIPSSMTPSTVQEMAENLADDWQEQNGNKNVKVEVDPDNGWIRIRSAGGSA [r15_33_TrROS]” is lower in “folding stability dG unfold” value: 1.6 ± 0.048 kcal/mol for the first, -0.0158 ± 0.066 kcal/mol for the second.
